Assay results from patent US20120094909A1 (Bristol-Myers Squibb, published 2012).
Where “and” joins values, the source holds several entries; their conditions need not be identical. Equal values may be shown once. Read-outs that look alike come from different tables or passages of the source. Each block holds one binder with its values, some of them ahead of it.

How the values were obtained:
murine serum albumin = molecular target: T1, murine serum albumin (mouse, UniProt P07724 25-608); test: SPR, captured albumin
T1 construct: also called MuSA; mouse serum albumin
Procedure: (§1) The kinetics of selected SABA clones purified from HTPP and/or midscaled material described in Examples 5A and 5B were determined by capturing the respective serum albumin (HSA/RhSA/MuSA) on the surface of a Biasensor CMS chip and flowing a concentration series of SABAs over both the reference flow cell and the captured albumins. In addition, binding to albumin was carried out under various pH conditions ranging from pH 5.5 to pH 7.4.

[1] = molecular target: T2, human PCSK9 (proprotein convertase subtilisin kexin type 9) (human, UniProt Q8NBP7 31-692); test: BLI Octet Red, 37 C
T2 construct: Directly immobilized (SPR ProteOn), biotinylated (BLI), or in solution, depending on the assay; also called hPCSK9
Procedure: Tips were then immersed into a buffer-only well for observation of Adnectin dissociation. Experiments were performed in a temperature controlled environment at either 25 or 37° C., and the oscillation speed was set at 1500 rpm.
Binding interaction analysis was performed using proprietary software from Fortebio (Fortebio Data Analysis Software version 6.3.0.36). Global fits were performed for all samples, using a 1:1 binding model. The nature of these global fits constrained all values of concentration to a single pair of association and dissociation rates that were themselves constrained to each other. Affinities (KD), association and dissociation rates were averaged over the various loading levels used in the analysis.

[2] = molecular target: T2, human PCSK9 (proprotein convertase …); test: FRET, competitor EGFA peptide
From the text: (§2) Table 11 summarizes the overall data from these three FRET assays.

cynomolgus monkey PCSK9 [3] = molecular target: T3, cynomolgus monkey PCSK9 (cynomolgus monkey, UniProt A0A7N9D9N8 150-747); test: FRET, competitor EGFA peptide
T3 construct: also called cyno PCSK9; cPCSK9
From the text: as §2

[4] = molecular target: T2, human PCSK9 (proprotein convertase …); test: BLI, biotinylated hPCSK9 on sensor tips
[5] = molecular target: T4, human PCSK9 (proprotein convertase subtilisin kexin type 9) (human, UniProt Q8NBP7 31-692); test: PCSK9:EGFA FRET, competitor EGFA peptide
T4 construct: immobilized directly (ProteOn), biotinylated (Octet) or in solution, according to the assay; also called hPCSK9; PCSK9-AF647 (labelled form)

[6] = molecular target: T4, human PCSK9 (proprotein convertase …); test: ITC, 37 C
[7] = molecular target: T4, human PCSK9 (proprotein convertase …); test: cell-based or functional assay
[8] = molecular target: T4, human PCSK9 (proprotein convertase …); test: cell-based or functional assay; remark: listed apart in the source
[9] = molecular target: T2, human PCSK9 (proprotein convertase …); test: FRET, competitor ATI000972
From the text: as §2

cynomolgus monkey PCSK9 [10] = molecular target: cynomolgus monkey PCSK9 (cynomolgus monkey, UniProt A0A7N9D9N8 150-747); test: FRET, competitor EGFA peptide
From the text: as §2

[11] = molecular target: T2, human PCSK9 (proprotein convertase …); test: cell-based or functional assay; remark: listed apart in the source
[12] = molecular target: T2, human PCSK9 (proprotein convertase …); test: FRET direct binding, anti-his6 antibody
From the text: as §2

[13] = molecular target: T4, human PCSK9 (proprotein convertase …); test: SPR (ProteOn), 25 C
[14] = molecular target: T2, human PCSK9 (proprotein convertase …); test: SPR ProteOn, 25 C
Procedure: (§3) The binding characteristics were characterized by Surface Plasmon Resonance (SPR). […] This allowed kinetic determination in the absence of regeneration. […] Evaluation of the kinetic parameters was performed using the Langmuir interaction model and constant parameter fitting with the ProteOn Manager software.

[15] = molecular target: T2, human PCSK9 (proprotein convertase …); test: SPR ProteOn, PCSK9 immobilized, 25 C
Procedure: as §3

Cynomolgus PCSK9 = molecular target: T5, Cynomolgus PCSK9 (cynomolgus monkey, UniProt A0A7N9D9N8 150-747); test: SPR (ProteOn), PCSK9 immobilized directly, 25 C
T5 construct: also called cyno PCSK9; cPCSK9
Procedure: as §3

rhesus serum albumin = molecular target: T6, rhesus serum albumin (rhesus, UniProt Q28522 17-600); test: SPR (Biacore), albumin captured on chip, SABA in flow
T6 construct: also called RhSA
Procedure: as §1

human serum albumin = molecular target: T7, human serum albumin (human, UniProt P02768 25-609); test: as above
T7 construct: also called HSA
Procedure: as §1

binding result (murine serum albumin): no binding
B1: SABA2.1 (designed binder)
chain: MGVSDVPRDLEVVAATPTSLLISWPKYDKTGHYYRITYGETGGNSPVQEFTVPTRQTTATISGLKPGVDYTITVYAVSKDDYYPHEHRPISINYRTEIDKPSQHHHHHH

Kd [1]: 0.314 nM
EC50 [2]: 2.6 nM
EC50 (cynomolgus monkey PCSK9 [3]): 57.8 nM
Kd [4]: 0.314 nM
koff [4]: 0.000157 s⁻¹
kon [4]: 505000 M⁻¹ s⁻¹
B2: 2382D05 (designed binder)
chain: MGVSDVPRDLEVVAATPTSLLISWDAPADGGYGYYRITYGETGGNSPVQEFTVPVSKGTATISGLKPGVDYTITVYAVEFDFPGAGYYHRPISINYRTEIDKPSQHHHHHH
notes: Anti-PCSK9 Adnectin, His6-tagged; Same entry as 2451B06

EC50 [2]: 4.5 nM
EC50 (cynomolgus monkey PCSK9 [3]): 57.8 nM
B3: 2451B06 (designed binder)
chain: MGVSDVPRDLEVVAATPTSLLISWDAPADGGYGYYRITYGETGGNSPVQEFTVPVSKGTATISGLKPGVDYTITVYAVEFDFPGAGYYHRPISINYRTEIDKPSQHHHHHH
notes: Anti-PCSK9 Adnectin, His6-tagged; also called 2451B06 (equivalent to 2382D05)

binding result (murine serum albumin): no binding
B4: SABA1.1 (designed binder)
chain: MGVSDVPRDLEVVAATPTSLLISWHSYYEQNSYYRITYGETGGNSPVQEFTVPYSQTTATISGLKPGVDYTITVYAVYGSKYYYPISINYRTEIDKPSQHHHHHH
notes: core 1 10Fn3 with His6; also called clone 1318H04

EC50 [5]: 2 nM
Kd [6]: 3.8 nM
LDLR Depletion (% inhibition at 75 nM) [7]: 150%
LDLR Depletion EC50 [7]: 26 nM
DiI-LDL uptake in HepG2 cells, EC50 [8]: 210 nM
EC50 (nM), PCSK9-induced LDLR depletion from HepG2 cell surface [8]: 16 nM
percentage of PCSK9 inhibition at 75 nM [8]: 150%
B5: 1784F03 (designed binder)
chain: MGVSDVPRDLEVVAATPTSLLISWRPPIHAYGYYRITYGETGGNSPVQEFTVPIVEGTATISGLKPGVDYTITVYAVEYTFKHSGYYHRPISINYRTEIDKPSQHHHHHH

IC50 [9]: 1.9 nM
EC50 [2]: 2.01 nM
IC50 [2]: 2 nM
EC50 (cynomolgus monkey PCSK9 [10]): 106 nM
IC50 (cynomolgus monkey PCSK9 [10]): 106 nM
LDLR Depletion EC50 [11]: 26 nM
EC50 [12]: 1.6 nM
B6: 1784F03 (designed binder)
chain: MGVSDVPRDLEVVAATPTSLLISWRPPIHAYGYYRITYGETGGNSPVQEFTVPIVEGTATISGLKPGVDYTITVYAVEYTFKHSGYYHRPISINYRTEIDKPSQHHHHHH
notes: Anti-PCSK9 Adnectin, His6-tagged

EC50 [5]: 2.7 nM
LDLR Depletion (% inhibition at 75 nM) [7]: 198%
LDLR Depletion EC50 [7]: 12 nM
EC50 (nM), PCSK9-induced LDLR depletion from HepG2 cell surface [8]: 8.85 nM
percentage of PCSK9 inhibition at 75 nM [8]: 177%
Kd [13]: 0.08 nM
B7: 2011H05 (designed binder)
chain: MGVSDVPRDLEVVAATPTSLLISWVPSSHAYGYYRITYGETGGNSPVQEFTVPVGVGTATISGLKPGVDYTITVYAVEYAFEGAGYYHRPISINYRTEIDKPSQHHHHHH
notes: also called ATI001091

IC50 [9]: 2.4 nM
EC50 [2]: 2.7 nM
IC50 [2]: 1.3 nM
EC50 (cynomolgus monkey PCSK9 [10]): 118 nM
IC50 (cynomolgus monkey PCSK9 [10]): 118 nM
LDLR Depletion EC50 [11]: 16 nM
EC50 [12]: 2.3 nM
B8: 1813E02 (designed binder)
chain: MGVSDVPRDLEVVAATPTSLLISWSPPANGYGYYRITYGETGGNSPVQEFTVPVGRGTATISGLKPGVDYTITVYAVEYTYKGSGYYHRPISINYRTEIDKPSQHHHHHH
notes: as for B6

EC50 [5]: 2.3 nM
LDLR Depletion (% inhibition at 75 nM) [7]: 178%
LDLR Depletion EC50 [7]: 23 nM
Kd [13]: 0.173 nM
B9: 1923B02 (designed binder)
chain: MGVSDVPRDLEVVAATPTSLLISWTPPPKGYGYYRITYGETGGNSPVQEFTVPVGEGTATISGLKPGVDYTITVYAVEYTYNGAGYYHRPISINYRTEIDKPSQHHHHHH

EC50 [5]: 1.2 nM
LDLR Depletion (% inhibition at 75 nM) [7]: 105%
LDLR Depletion EC50 [7]: 10 nM
Kd [13]: 0.09 nM
B10: 1922G04 (designed binder)
chain: MGVSDVPRDLEVVAATPTSLLISWRPPSHAYGYYRITYGETGGNSPVQEFTVPIGKGTATISGLKPGVDYTITVYAVEYPWKGSGYYHRPISINYRTEIDKPSQHHHHHH
notes: also called ATI001057; ATI-1057

Kd [14]: 0.17 nM
IC50 [9]: 3.2 nM
EC50 [2]: 2.3 nM
IC50 [2]: 2.3 nM
EC50 (cynomolgus monkey PCSK9 [10]): 53.5 nM
LDLR Depletion EC50 [11]: 23 nM
EC50 [12]: 3.2 nM
B11: 1923B02 (designed binder)
chain: MGVSDVPRDLEVVAATPTSLLISWTPPPKGYGYYRITYGETGGNSPVQEFTVPVGEGTATISGLKPGVDYTITVYAVEYTYNGAGYYHRPISINYRTEIDKPSQHHHHHH
notes: as for B6

EC50 [5]: 1.3 nM
Kd [6]: < 2 nM
LDLR Depletion EC50 [7]: 16 nM
B12: 1813E02 (designed binder)
chain: MGVSDVPRDLEVVAATPTSLLISWSPPANGYGYYRITYGETGGNSPVQEFTVPVGRGTATISGLKPGVDYTITVYAVEYTYKGSGYYHRPISINYRTEIDKPSQHHHHHH

Kd [14]: 1.58 nM
Kd [15]: 1.58 nM
koff [15]: 0.00018 s⁻¹
kon [15]: 113000 M⁻¹ s⁻¹
IC50 [9]: 14 nM
Kd [1]: 14.4 nM
EC50 [2]: 5.8 nM
IC50 [2]: 4 nM
EC50 (cynomolgus monkey PCSK9 [10]): > 1000 nM
IC50 (cynomolgus monkey PCSK9 [10]): 2300 nM
LDLR Depletion EC50 [11]: > 200 nM
EC50 [12]: 3.9 nM
kon [4]: 149000 M⁻¹ s⁻¹ and 108000 M⁻¹ s⁻¹
B13: 1459D05 (designed binder)
chain: MGVSDVPRDLEVVAATPTSLLISWPPPSHGYGYYRITYGETGGNSPVQEFTVPPGKGTATISGLKPGVDYTITVYAVEYPYKHSGYYHRPISINYRTEIDKPSQHHHHHH
notes: also called ATI000891; ATI-891

EC50 [5]: 2.1 nM
LDLR Depletion (% inhibition at 75 nM) [7]: 144%
LDLR Depletion EC50 [7]: 12 nM
DiI-LDL uptake in HepG2 cells, EC50 [8]: 130 nM
EC50 (nM), PCSK9-induced LDLR depletion from HepG2 cell surface [8]: 7.78 nM
percentage of PCSK9 inhibition at 75 nM [8]: 190%
Kd (Cynomolgus PCSK9): 24 nM
Kd [13]: 0.25 nM
B14: 2012A04 (designed binder)
chain: MGVSDVPRDLEVVAATPTSLLISWRPPSNGHGYYRITYGETGGNSPVQEFTVPVNEGTATISGLKPGVDYTITVYAVEFPFKWSGYYHRPISINYRTEIDKPSQHHHHHH

binding result (murine serum albumin): no binding
B15: SABA4.1 (designed binder)
chain: MGVSDVPRDLEMVAATPTSLLISWEDDSYYSRYYRITYGETGGNSPVQEFTVPSDLYTATISGLKPGVDYTITVYAVTYDVTDLIMHEPISINYRTEIDKPSQHHHHHH

Kd (rhesus serum albumin): 431 nM
koff (rhesus serum albumin): 0.0337 s⁻¹
Kd (human serum albumin): 863 nM
koff (human serum albumin): 0.0682 s⁻¹
B16: SABA3.1 (designed binder)
chain: MGVSDVPRDLEVVAATPTSLLISWSNDGPGLSYYRITYGETGGNSPVQEFTVPSSQTTATISGLKPGVDYTITVYAVSYYTKKAYSAGPISINYRTEIDKPSQHHHHHH
notes: also called clone 1245H07

binding result (murine serum albumin): no binding
B17: SABA3.1 (designed binder)
chain: MGVSDVPRDLEVVAATPTSLLISWSNDGPGLSYYRITYGETGGNSPVQEFTVPSSQTTATISGLKPGVDYTITVYAVSYYTKKAYSAGPISINYRTEIDKPSQHHHHHH
notes: also called clone 1245H07
